Patent US20190300576A1 (MIT, published 2019)
*1 amine or outer side, *2 acyl side, *3 side chain or, on linkers, in order; H or OH if unused. Bridges are numbered along the chain shown (N, C = ends). Where no end group is shown, it is not given here. [ ]: non-standard residue; d: D form. The star is where a group is joined. Hexa = hexylalanine = (2S)-2-aminononanoic acid, CCCCCCC[C@H](N[*:1])C(=O)[*:2]; Biotin = O=C1N[C@H]2[C@H](CS[C@H]2CCCCC(=O)*)N1; perfluorosulfone = not defined here; R8 = C=CCCCCCC[C@@](C)(N)C(=O)O; F2f = difluoro-L-phenylalanine; Cba = N[C@@H](CC1CCC1)C(=O)O; S5 = C=CCCC[C@](C)(N)C(=O)O; Anta = not defined here; Napa = not defined here; Dap = NC[C@H](N)C(=O)O; F3f = not defined here

How the values were obtained:
[1] = molecular target: MDM2 in MDM2 overexpressing SJSA-1 cells (UniProt Q00987 1-491, limits assumed); test: cell-based or functional assay
SUMO-^25-109MDM2 [2] = molecular target: T1, SUMO-^25-109MDM2 (UniProt Q00987 25-109); test: BLI, peptide on streptavidin sensors, global fit
T1 construct: range 25-109; Expressed in Rosetta (DE3) pLysS cells, MW=23 297 Da, used with the SUMO tag on; not shown: SUMO fusion tag (protein purified on Ni-NTA)

SUMO-^25-109MDM2 [3] = molecular target: T1, SUMO-^25-109MDM2; test: BLI, immobilized assay for biotinylated peptide
SUMO-^25-109MDM2 [4] = molecular target: T1, SUMO-^25-109MDM2; test: BLI, estimated in solution (competition assay) for acetylated construct
SUMO-^25-109MDM2 [5] = molecular target: T1, SUMO-^25-109MDM2; test: BLI, biotinylated peptide immobilized
SUMO-^25-109MDM2 [6] = molecular target: T1, SUMO-^25-109MDM2; test: BLI in-solution competition assay, free MDM2 read on immobilized 63a
SUMO-^25-109MDM2 [7] = molecular target: T1, SUMO-^25-109MDM2; test: BLI, acetylated peptide (in solution competition assay)

| Binder | IC50, viability of SJSA-1 cells [1] [µM] | Kd (SUMO-^25-109MDM2 [2]) [µM] | also measured |
| --- | --- | --- | --- |
| Ac-LT[F2f][R8]EY[Hexa]AQ[Cba][S5]SAA-NH2 (staple 4-11) [peptide 10b-M] | 2.4 | – | – |
| Biotin-LT[F2f]EHYWAQ[Cba]TSK-NH2 [peptide 11a] | – | 0.002 | – |
| Ac-LT[F2f][R8]EY[Hexa]AQ[Cba][S5]SAA-NH2 (bridges not given here) [peptide 10b-M unclosed] | 17 | – | – |
| Ac-LT[F2f][R8]EY[Napa]AE[Cba]KSAA-NH2 (staple (positions not given here); not fully specified (residue 11, bridges); reading uncertain) [peptide 27b-M] | 2.7 | – | – |
| Biotin-LT[F2f][R8]EY[Hexa]AQ[Cba][S5]SAA-NH2 (staple 4-11, Macrocyclic) [peptide 10a-M] | – | 0.005 | Kd (SUMO-^25-109MDM2 [3]): 0.003 µM |
| Ac-LT[F2f][R8]EFWAQ[Cba][S5]SAA-NH2 (staple 4-11) [peptide 11b-M] | 3.2 | – | – |
| Ac-LT[F2f][Dap]EYWAQ[Cba][Dap]SAA-NH2 (linker 4-11 via perfluoroaryl sulfone, Macrocyclic) [peptide 11b-S1] | 7.8 | – | Kd (SUMO-^25-109MDM2 [4]): 0.001 µM |
| LTF[R8]EYWAE[Cba][S5]SAA-NH2 (staple 4-11; N-terminus assumed; SMILES CC(C)C[C@H](N)C(=O)N[C@H](C(=O)N[C@@H](Cc1ccccc1)C(=O)N[C@]1(C)CCCCCCC=CCCC[C@@](C)(C(=O)N[C@@H](CO)C(=O)N[C@@H](C)C(=O)N[C@@H](C)C(N)=O)NC(=O)[C@H](CC2CCC2)NC(=O)[C@H](CCC(=O)O)NC(=O)[C@H](C)NC(=O)[C@H](Cc2c[nH]c3ccccc23)NC(=O)[C@H](Cc2ccc(O)cc2)NC(=O)[C@H](CCC(=O)O)NC1=O)[C@@H](C)O) [peptide ATSP-7040] | 3 | – | – |
| Ac-LT[F2f]KEY[Hexa]AQ[Cba]KSAA-NH2 (linker 4-11 via perfluorosulfone; reading uncertain; also: printed as LT(F2f)KEY(Hexa)AQ(Cba)(K)SAA) [peptide 10b-S4] | > 20 | – | – |
| Ac-LT[F2f]KEY[Napa]AQ[Cba]KSAA-NH2 (linker 4-11 via perfluorosulfone; reading uncertain) [27b-S4] | > 20 | – | – |
| Ac-LT[F2f]KEYWAE[Cba]KSAA-NH2 (linker 4-11 via perfluorosulfone; reading uncertain; also: printed as LT(F2f)KEYWAE(Cba)KSAA) [peptide 11b-S4] | > 20 | – | – |
| Ac-LT[F2f][Dap]EY[Hexa]AQ[Cba][Dap]SAA-NH2 (bridge 4-11 via perfluorosulfone; reading uncertain) [peptide 10b-S1] | > 20 | – | – |
| Biotin-LTFPHYWAELTSK-NH2 (SMILES CC(C)C[C@H](NC(=O)CCCC[C@@H]1SC[C@@H]2NC(=O)N[C@@H]21)C(=O)N[C@H](C(=O)N[C@@H](Cc1ccccc1)C(=O)N1CCC[C@H]1C(=O)N[C@@H](Cc1c[nH]cn1)C(=O)N[C@@H](Cc1ccc(O)cc1)C(=O)N[C@@H](Cc1c[nH]c2ccccc12)C(=O)N[C@@H](C)C(=O)N[C@@H](CCC(=O)O)C(=O)N[C@@H](CC(C)C)C(=O)N[C@H](C(=O)N[C@@H](CO)C(=O)N[C@@H](CCCCN)C(N)=O)[C@@H](C)O)[C@@H](C)O) [peptide 3a] | – | – | Kd (SUMO-^25-109MDM2 [5]): 0.08 µM |
| Ac-LTFEHYWAQYTSK-NH2 [peptide 7b] | – | – | Kd (SUMO-^25-109MDM2 [6]): 0.49 µM |
| Biotin-LT[F2f]EHY[Hexa]AQ[Cba]TSK-NH2 [peptide 10a] | – | 0.0005 | – |
| Ac-LTYEHYWAQLTSK-NH2 (Text says 3Phe to Leu or Tyr (8a and 9a)) [peptide 9b] | – | – | Kd (SUMO-^25-109MDM2 [6]): 8.7 µM |
| Ac-LTLEHYWAQLTSK-NH2 (Text says 3Phe to Leu or Tyr (8a and 9a)) [peptide 8b] | – | – | Kd (SUMO-^25-109MDM2 [7]): 2.7 µM; Kd (SUMO-^25-109MDM2 [6]): 2.5 µM |
| Biotin-LT[F2f]EHYWAQ[F2f]TSK-NH2 [peptide 25a] | – | 0.02 | – |
| Biotin-LT[F3f]EHY[Anta]AQ[Cba]TSK-NH2 (reading uncertain; also: printed as LT(F3f)EHY(Anta)AQ(Cba)TSK) [peptide 22a] | – | 0.01 | – |
| Biotin-LT[F2f]EHYWAQ[Hexa]TSK-NH2 [peptide 19a] | – | 0.008 | – |
